In US20070010432A1, “Heat shock protein 90 activator” (priority 2002, published 2007):

Assays:
[1] = molecular target: T1, Yeast Hsp90 (Saccharomyces cerevisiae, UniProt P02829); test: Malachite green colorimetric ATPase assay, yeast Hsp90; assay type: biochemical
T1 construct: made in house; host or cells: E. coli
Source text: The activity of enzymes that release inorganic phosphate can be measured using the reaction of the cationic dye, malachite green, with a phosphomolybdate complex to generate a blue-green colour with an absorbance maximum at 610 nm (Cogan, E. B. et al (1999) Anal. Biochem. 271, 29-35; Baykov, A. A. et al (1988) Anal. Biochem. 171, 266-270; Harder, K. W. et al (1994) Biochem. J. 298, 395-401; Maehama, T. et al (2000) Anal. Biochem. 279, 248-250) as described above.
Chemicals are of the highest purity commercially available and all aqueous solutions are made up in AR water. • 1. For the full length Aha1, an assay buffer of 45 mM Tris-HCl pH 7.5, 9 mM KCl, 3 mM MgCl may be used. For the C-and N-terminal domain of Aha1 or the Hch1 homologue, an 20 mM Tris-HCl pH 7.5, 4 mM KCl, 1.2 mM MgCl. An assay buffer of 100 mM Tris-HCl, pH 7.4, 20 mM KCl, 6 mM MgCl2 may also be used. Stored at 4° C. • 2. 0.0812% (w/v) malachite green (Sigma M 9636). Stored at room temperature. • 3. […]

[2] = molecular target: T2, Human Hsp90 (Homo sapiens, UniProt P08238); test: Stimulation of human HSP90 ATPase activity by Aha1; assay type: biochemical
T2 construct: made in house; host or cells: E. coli BL21 (DE3) pLysS (stated for Aha1 only)
T2 sequence (P08238 whole entry): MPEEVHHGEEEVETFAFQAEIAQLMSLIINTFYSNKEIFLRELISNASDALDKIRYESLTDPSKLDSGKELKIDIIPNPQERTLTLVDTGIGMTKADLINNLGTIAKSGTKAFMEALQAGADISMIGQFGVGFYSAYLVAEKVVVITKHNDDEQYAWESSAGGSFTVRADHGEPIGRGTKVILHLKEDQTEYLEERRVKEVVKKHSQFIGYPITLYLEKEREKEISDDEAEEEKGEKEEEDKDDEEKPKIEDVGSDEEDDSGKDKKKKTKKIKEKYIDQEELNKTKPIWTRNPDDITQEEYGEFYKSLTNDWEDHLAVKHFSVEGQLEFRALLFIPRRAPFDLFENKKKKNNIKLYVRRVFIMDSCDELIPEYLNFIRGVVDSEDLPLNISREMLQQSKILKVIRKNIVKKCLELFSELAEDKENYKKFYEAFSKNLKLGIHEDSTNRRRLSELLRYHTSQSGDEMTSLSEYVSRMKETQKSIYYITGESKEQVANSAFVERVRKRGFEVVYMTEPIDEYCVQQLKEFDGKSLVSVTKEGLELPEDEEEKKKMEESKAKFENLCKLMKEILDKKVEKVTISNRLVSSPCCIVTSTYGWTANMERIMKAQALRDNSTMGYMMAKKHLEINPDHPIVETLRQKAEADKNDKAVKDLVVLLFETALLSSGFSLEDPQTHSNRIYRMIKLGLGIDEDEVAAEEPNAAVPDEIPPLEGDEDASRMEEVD
Experimental: Each value is the mean±Sd of n=4 ATP at 0.6 mM.
Each point is the mean±SD of n=4 ATP at 0.6 mM.
Chemicals are of the highest purity commercially available and all aqueous solutions are made up in AR water. • 1. For the full length Aha1, an assay buffer of 45 mM Tris-HCl pH 7.5, 9 mM KCl, 3 mM MgCl may be used. For the C-and N-terminal domain of Aha1 or the Hch1 homologue, an 20 mM Tris-HCl pH 7.5, 4 mM KCl, 1.2 mM MgCl. An assay buffer of 100 mM Tris-HCl, pH 7.4, 20 mM KCl, 6 mM MgCl2 may also be used. Stored at 4° C. • 2. 0.0812% (w/v) malachite green (Sigma M 9636). Stored at room temperature. • 3. 2.32% (w/v) polyvinyl alcohol USP (Sigma P 1097). Stored at room temperature. The polyvinyl alcohol dissolves in boiling water with difficulty and stirring for 2-3 h is required • 4. 5.72% (w/v) ammonium molybdate in 6M hydrochloric acid. Stored at room temperature. • 5. […] Stored at room temperature. • 6. ATP, disodium salt, special quality (Boehringer Mannheim 519979). Stored at 4° C. • 7. […]
Initially, the reagent was a dark brown colour, but after standing at room temperature for about 2 h, this became a golden yellow colour and was ready for use. […]
To stop the incubation, 80 μl of the malachite green reagent was added to each well and the plate shaken again. […] The absorbance at 620 nm was measured using a suitable plate reader (e.g. Victor^2, PerkinElmer Life Sciences). […]

[3] = molecular target: T3, Hsp90 (Saccharomyces cerevisiae, UniProt P02829); test: Effect of Aha1, Aha1 domains or Hch1 concentration on geldanamycin dependent ATPase activity of Hsp90; assay type: biochemical; conditions: for Effect on Hsp90 ATPase activity (in words): FIG. 5 and 6, 20 mM Tris pH 7.5, 4 mM KCl, 1.2 mM MgCl2
T3 construct: made in house; host or cells: E. coli (if the yeast protein of the reagent list)
T3 sequence (P02829 whole entry, the tested form may be a part): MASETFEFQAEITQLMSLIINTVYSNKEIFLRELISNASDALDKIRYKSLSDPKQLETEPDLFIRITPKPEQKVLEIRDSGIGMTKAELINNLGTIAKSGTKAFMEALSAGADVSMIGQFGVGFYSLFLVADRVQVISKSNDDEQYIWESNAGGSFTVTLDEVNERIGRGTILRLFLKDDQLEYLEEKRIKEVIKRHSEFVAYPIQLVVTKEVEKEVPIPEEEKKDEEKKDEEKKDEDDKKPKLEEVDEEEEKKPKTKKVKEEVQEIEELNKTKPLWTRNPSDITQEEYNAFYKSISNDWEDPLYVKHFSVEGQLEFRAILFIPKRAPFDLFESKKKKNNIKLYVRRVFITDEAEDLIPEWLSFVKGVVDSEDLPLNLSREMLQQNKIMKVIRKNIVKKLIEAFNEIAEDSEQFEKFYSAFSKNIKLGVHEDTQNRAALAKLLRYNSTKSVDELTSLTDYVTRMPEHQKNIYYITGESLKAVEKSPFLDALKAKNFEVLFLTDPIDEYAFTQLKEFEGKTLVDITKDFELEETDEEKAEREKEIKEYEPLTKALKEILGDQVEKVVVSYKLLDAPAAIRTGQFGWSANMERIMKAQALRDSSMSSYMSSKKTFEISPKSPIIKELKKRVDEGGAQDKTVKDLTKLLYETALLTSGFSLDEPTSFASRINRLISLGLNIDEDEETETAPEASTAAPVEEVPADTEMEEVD
Experimental: Half activation is shown to be at […] Aha1. 0.2 μM Aha1 was used in a buffer consisting of 45 mM Tris pH 7.5, 9 mM KCl, 3 mM MgCl2.
2 μM Aha1 was used in a buffer consisting of 20 mM Tris pH 7.5, 4 mM KCl, 1.2 mM MgCl2.
Hch1 and truncated Aha1 polypeptides corresponding to the N and C terminal domains of full-length Aha1 were expressed and purified as described above. The N terminal domain polypeptide (nAha1) consisted of 162 aa from the N terminal MVVNNP to GNDIQV. The C terminal domain polypeptide (cAha1) consisted of the remainder of the Aha1 sequence.
Chemicals are of the highest purity commercially available and all aqueous solutions are made up in AR water. • 1. For the full length Aha1, an assay buffer of 45 mM Tris-HCl pH 7.5, 9 mM KCl, 3 mM MgCl may be used. For the C-and N-terminal domain of Aha1 or the Hch1 homologue, an 20 mM Tris-HCl pH 7.5, 4 mM KCl, 1.2 mM MgCl. An assay buffer of 100 mM Tris-HCl, pH 7.4, 20 mM KCl, 6 mM MgCl2 may also be used. Stored at 4° C. • 2. 0.0812% (w/v) malachite green (Sigma M 9636). Stored at room temperature. • 3. 2.32% (w/v) polyvinyl alcohol USP (Sigma P 1097). Stored at room temperature. The polyvinyl alcohol dissolves in boiling water with difficulty and stirring for 2-3 h is required • 4. 5.72% (w/v) ammonium molybdate in 6M hydrochloric acid. Stored at room temperature. • 5. […] Stored at room temperature. • 6. ATP, disodium salt, special quality (Boehringer Mannheim 519979). Stored at 4° C. • 7. E. coli expressed yeast HSP90 protein, purified >95% (10) and stored at −80° C. as 10 μl aliquots containing 0.5 mg of protein. Assay Protocol

[4] = molecular target: Human hsp90 beta protein (human) (UniProt P08238)
[5] = molecular target: Hsp90 (species not stated; FIGS. 4 to 6)

T1 sequence (P02829 whole entry): as the sequence (P02829 whole entry, the tested form may be a part) above

## C=CCNC1=C2C[C@@H](C)C[C@H](OC)[C@H](O)[C@@H](C)/C=C(\C)[C@H](OC(N)=O)[C@@H](OC)/C=C\C=C(/C)C(=O)NC(=CC1=O)C2=O [17AAG]
[1]
  Inhibition of yeast HSP90 ATPase activity (in words): potent inhibitors

## Aha1: Aha1 (YDR214W) protein expressed in E. coli; co-activator stimulating Hsp90 ATPase activity
[2]
  Increase of the activity of human Hsp90 in the presence of Aha1: approximately 2 fold
[2]; FIG. 1, ATP 0.6 mM
  Effect on ATPase activity of increasing concentrations of human HSP90 (in words): significantly increase
[3]; FIG. 4, text of results, read-out: Aha1 concentration for half maximal activation of Hsp90
  EC50: < 1 µM

## C[C@@H]1C[C@H]2O[C@@H]2/C=C\C=C\C(=O)Cc2c(Cl)c(O)cc(O)c2C(=O)O1 [Radicicol, radicicol]
[1]
  Inhibition of yeast HSP90 ATPase activity (in words): potent inhibitors

## Hch1: homologue of Aha1, expressed and purified like Aha1
[3]
  Effect on Hsp90 ATPase activity (in words): activate Hsp90 ATPase activity, but to a lesser extent than the full length Aha1 polypeptide

## Aha1 (YDR214W), full length (from UniProt Q12449)
[4]
  ATPase activity of human Hsp90 (malachite green assay of inorganic phosphate): 2 fold
[5]
  Half maximal activation of Hsp90 (geldanamycin dependent ATPase activity): < 1 µM

B1: C terminal domain of Aha1: truncated Aha1 polypeptide consisting of the remainder of the Aha1 sequence (protein)
chain: PESQVKSNYTRGNQKSSFTEIKDSASKPKKNALPSSTSTSAPVSSTNKVPQNGSGNSTSIYLEPTFNVPSSELYETFLDKQRILAWTRSAQFFNSGPKLETKEKFELFGGNVISELVSCEKDKKLVFHWKLKDWSAPFNSTIEMTFHESQEFHETKLQVKWTGIPVGEEDRVRANFEEYYVRSIKLTFGFGAVL
[3]
  Effect on Hsp90 ATPase activity (in words): little or no effect

B2: N terminal domain of Aha1: truncated Aha1 polypeptide of 162 aa from the N terminal MVVNNP to GNDIQV (protein)
chain: MVVNNPNNWHWVDKNCIGWAKEYFKQKLVGVEAGSVKDKKYAKIKSVSSIEGDCEVNQRKGKVISLFDLKITVLIEGHVDSKDGSALPFEGSINVPEVAFDSEASSYQFDISIFKETSELSEAKPLIRSELLPKLRQIFQQFGKDLLATHGNDIQV
[3]
  Effect on Hsp90 ATPase activity (in words): activate Hsp90 ATPase activity, but to a lesser extent than the full length Aha1 polypeptide
